Test results from patent US20170065662A1 (RESEARCH FOUNDATION FOR THE STATE UNIVERSITY OF NEW YORK, published 2017).

Experiments:
[1] = biological target: T1, SH3 domain of Yes displayed on phage (UniProt P07947 91-152, limits assumed); assay: phage-ELISA on immobilised GST-K2
T1 construct: domain: SH3; also called Yes-SH3

[2] = biological target: T2, SH3 domain of Abl displayed on phage (UniProt P00519 61-121, limits assumed); assay: phage-ELISA on immobilised GST-K2
T2 construct: domain: SH3; also called Abl-SH3

[3] = biological target: T3, GST-Brk (full length GST-PTK6/Brk, SignalChem) (UniProt Q13882 1-451); assay: immunoprecipitation with GST antibodies, p27 immunoblot
T3 construct: mature; Bought enzyme; also called full length Brk; GST-tagged Brk; not shown: glutathione S-transferase (GST) tag
Source text: The reactions were probed by immunoblot analysis with pY88 and pY74 antibodies (FIG. 3C).

T2 sequence (P00519 61-121 limits assumed): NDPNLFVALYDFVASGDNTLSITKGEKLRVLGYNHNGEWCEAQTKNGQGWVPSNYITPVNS
T1 sequence (P07947 91-152 limits assumed): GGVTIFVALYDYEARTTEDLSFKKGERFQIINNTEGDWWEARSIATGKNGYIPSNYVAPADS

Row | binding result [1] | binding result [2] | binding result [3] | Binder
1 | no binding | no binding |  | DVSGSRPAAPLIGAPA (also called K2 peptide; K2 site; not shown: glutathione S-transferase (GST) tag of the pGEX-KG vector, N-terminal) [GST-K2 (N-terminally GST-tagged p27 K2 PxxP peptide)]
2 |  |  | binds | RKWNFDFQNHKPLEGKYEWQEVEKGSLPEFYYRPPRPPKGACKVPAQES (not shown: Flag tag) [F58-106 (Flag tagged K1-site containing peptide, p27 residues 58 to 106)]
